Assay results from patent US20250313612A1 (Adimab, published 2025).

Tests used:
[1] = biological target: RSV F protein of recombinant mKate-RSV, subtype A (strain A2) (Respiratory syncytial virus subtype A …, UniProt P03420 26-574); experiment: cell-based or functional assay
[2] = biological target: RSV F protein of recombinant mKate-RSV, subtype B (18537) (Respiratory syncytial virus subtype B …, UniProt P13843 26-574); experiment: cell-based or functional assay
[3] = biological target: T1, RSV F ectodomain stabilized in the postfusion conformation (F ΔFP), subtype B (Respiratory syncytial virus subtype B, UniProt P13843 26-109; P13843 147-524); experiment: BLI, IgG on AHQ sensor, 100 nM antigen
T1 construct: extracellular domain; trimer; also called Postfusion subtype B; postF subtype B

[4] = biological target: T2, RSV F ectodomain stabilized in the postfusion conformation (F ΔFP), subtype A (Respiratory syncytial virus subtype A, UniProt P03420 26-109; P03420 147-524); experiment: BLI, IgG on AHQ sensor, 100 nM antigen
T2 construct: extracellular domain; trimer; furin-cleaved; also called Postfusion subtype A

Binder | Neut IC50 subtype A [1] | Neut IC50 subtype B [2] | Kd [3] | Kd [4]
ADI-14466 (antibody, V domains shown, full-length IgG (yeast-expressed); also called Antibody Number 29; Ab# 29) VH: QVQLVQSGAEAKKPGEPLRISCKGSGYTFSSYWISWVRQRPGERLEWMGRIDPSDSYAYSSPSFQGHVTFSADKSSNTAFLQWSSLQASDTAIYYCARHKENYDFWDFWGQGTMVTVSS VL: ETTLTQSPDSLAVSLGERATINCRSSQPILFNPINKLSLAWYQLKPGQPPKLLISWASTREPGVPDRFNGSGSGTVFTLTISSLQPEDVAVYVCQQYFTSTFFGPGTKVEIK | 0.144 µg/mL | 0.263 µg/mL | 0.169 nM | 0.247 nM
ADI-14446 (antibody, V domains shown, full-length IgG (yeast-expressed); also called Antibody Number 9; Ab# 9) VH: QVQLVQSGAEVKKPGSSVKVSCEASGDTFTSYAVIWVRQTPGQGLEFMGSIIPIFQTINYAPKFQGRVTLSADGSTSTVFMELRNLRSEDTAIYFCATKRYCTSPSCHGLWYFNLWGRGTMVTVSS VL: ETTLTQSPISLSVTPGEPASISCRSSKSLLDSDDGNTYLDWYLQKPGQSPQILIYMLSYRASGVPDRFSGSGSGTDFTLKISRVEAEDVGVYYCMQRIEYPYTFGQGTKVEIK | 0.091 µg/mL | 0.187 µg/mL | 0.137 nM | 0.213 nM
ADI-14452 (antibody, V domains shown, full-length IgG (yeast-expressed); also called Antibody Number 15; Ab# 15) VH: QVQLVQSGAEVKKPGSSVKVSCEASGDTFTSYAVIWVRQAPGQGLEWMGSIIPIFQTINYAPKFQGRVTLSADGSTRTVYMELGSLRSEDTAIYFCATKRYCTSPSCHGLWYFNLWGRGTLVTVSS VL: DIVMTQSPLSLPVTPGEPASISCRSSKSLLDSDDGNTYLDWYLQKPGQSPQILIYMLSHRASGVPDRFSGSGSGTDFTLKISRVEAEDVGVYYCMQRVEYPYSFGQGTKVEIK | 0.076 µg/mL | 0.157 µg/mL | 0.139 nM | 0.217 nM
ADI-14453 (antibody, V domains shown, full-length IgG (yeast-expressed); also called Antibody Number 16; Ab# 16) VH: QITLKESGPTVVKPTQTLTLTCTFSGFSLNTRGMGVAWIRQPPGGALEWLALVDWDDDKRYSPSLRSRLTITKDTSKNQVLFTMTTMDPADTATYYCAHIGLYDRGGYYLFYFDFWGQGTLVTVSS VL: DIVLTQSPSSLSASVGDRVTITCRASQSIASYVNWFQQKPGKAPVLLMFASSILQSGVPPRFRGSGSGTDFTLTITSLQPEDFATYYCQHTYTTPYIFGRGTKVEIK | > 10 µg/mL | > 10 µg/mL | 0.228 nM | 0.261 nM
ADI-14458 (antibody, V domains shown, full-length IgG (yeast-expressed); also called Antibody Number 21; Ab# 21) VH: QVQLVESGGGLVKPGGSLRLSCAASGFIFSNAWMSWVRQSPGKGLEWVGRIKTKTEGATTDHAAPLKGRFTISRDDSRNTLYLQMDSLTTEDTAVYFCTTGPPYSYFDSTGYSIVDYWGQGTLVTVSS VL: SYELTQPPAASGTPGQRVTISCSGSSSNIGSEYVLWYQQVPGTAPKLLIYNSHQRPSGVPDRISGSRSGTSASLAISGLRSEDEAHYYCASWDDSLSGPVFGGGTQLTVL | 0.161 µg/mL | 0.104 µg/mL | 0.126 nM | 0.196 nM
ADI-14460 (antibody, V domains shown, full-length IgG (yeast-expressed); also called Antibody Number 23; Ab# 23) VH: QVQLQQWGAGLLKPSETLSLSCTVSGGVFGNYFWSWVRQAPGKGLEWIGEINQIGTTNYSPSASLKSRVTISVDPSRNQFSLSLRSVTAADTARYYCTRSETSDYFDSSGYAFHIWGEGTMVTVSS VL: LPVLTQPASVSGSPGQSITISCSGISSDGGRYNYVSWYQQHPGKAPKLLIYDDSNWPLGVSHRFSGSKSGNTASLTISGLRAEDEADYYCGSYTDTNRLFGGGTQLTVL | 0.102 µg/mL | 0.239 µg/mL | 2.56 nM | 2.86 nM
ADI-14439 (antibody, V domains shown, full-length IgG (yeast-expressed); also called Antibody Number 2; Ab# 2) VH: QVQLVQSGAEVKKPGSSVRVSCRASGVTLTTVAVNWVRQVPGQGPEWIGGILVGLGKVRLAQKFENRATLRADTSSNTAYMELSGLRFEDTAVYYCAIIDPQDCTAASCFWVNWLDPWGQGTLVTVSS VL: EIVLTQSPGTLTLSPGETATLSCRASQSVLSGYLAWYQQKPGQAPRLLIYAASTRATDIPARFTGSGSATDFTLTISRLEPQDFAVYYCQQYGSAPITFGQGTRLEIK | > 10 µg/mL | 4.12 µg/mL | 16.2 nM | 5.16 nM
ADI-14457 (antibody, V domains shown, full-length IgG (yeast-expressed); also called Antibody Number 20; Ab# 20) VH: QVTLKESGPALVRPKQTLTLTCSFSGFSLDTQRTGVNWIRQSPGKALEWLARIDWDGNIYSSTSVRTKLSISKGTSKNQVVLTMTDVDPVDTATYYCARTLYYTSGGYYLNLFDYWGQGTLVTVSS VL: EIVMTQSPPSLSASVGDRVTITCRASQTIPSYVNWYQQISGKAPRLLIYAASLLQSGVPSRFSGSGSGTEFSLTISGLRPEDFGTYYCQQSYSSTPTFGQGTKVEIK | 0.2 µg/mL | 0.251 µg/mL | 0.461 nM | 0.38 nM
ADI-14484 (antibody, V domains shown, full-length IgG (yeast-expressed); also called Antibody Number 45; Ab# 45) VH: QVTLKESGPALVRPKQTLTLTCSFSGFSLDTQRTGVNWIRQSPGKALEWLARIDWDGNIYSSTSVRTKLSISKGTSKNQVVLTMTDVDPVDTATYYCARTLYYTSGGYYLNLFDYWGQGTLVTVSS VL: EIVMTQSPPSLSASVGDRVTITCRASQTIPSYVNWYQQISGKAPRLLIYAASLLQSGVPSRFSGSGSGTEFSLTISGLRPEDFGTYYCQQSYSSTPTFGQGTRLEIK | 0.448 µg/mL | 0.169 µg/mL | 0.394 nM | 0.389 nM
ADI-14459 (antibody, V domains shown, full-length IgG (yeast-expressed); also called Antibody Number 22; Ab# 22) VH: QVQLVQSGGGLVKPGGSLRLSCAASGFTFSNAWMSWVRQAPGKGLDWVGRIKTKADGGTRDYAAPVKGRFTISRDDSENTLYLQMTSLKTEDTGVYYCSTGPPYKYHDSTGYSVVDYWGQGTLVTVSS VL: SYELTQPPSASGTPGQRVTISCSGGSSNIGSDYVYWYQQLPGTAPKLLIYGSSQRPSGVPDRFSGSQSGTSASLAISGLRSEDEADYYCAMWDDSLNGPVFGGGTKLTVL | 0.396 µg/mL | 0.753 µg/mL | 0.183 nM | 0.264 nM
ADI-14468 (antibody, V domains shown, full-length IgG (yeast-expressed); also called Antibody Number 31; Ab# 31) VH: QVQLVQSGPTLVRPTQTLTLTCTFSGFSLSTRGVGVGWVRQSPGKAPEFLVLAHWDDDKIYSPSLRRRLSVTKDVSKNQVVLALTNVDPVDTGTYFCVKSDLYDRGGYYLYYFDHWGQGTLVTVSS VL: DIRMTQSPSSLSASVGDRVTITCRASQTIASYVNWYLQRPGEAPKLLIYAASNLHSGAPPSLIGRGSGTDFTLTINTLQPEHFGTYFCQQTFSSPYTFGQGTKVEIK | 0.241 µg/mL | 2.41 µg/mL | 0.241 nM | 0.297 nM
ADI-14449 (antibody, V domains shown, full-length IgG (yeast-expressed); also called Antibody Number 12; Ab# 12) VH: EVQLVESGGDLVKPGGSLRLSCEGSGFIFPNAWMSWVRQAPGKGLEWVGRIKSNTDGGTTDYGAPVKGRFTISRDDSTNTMYLHMNSLKTEDTAVYFCSTGPPYKYFDETGYSVVDYWGQGTLVTVSS VL: SYELTQPPSASGTPGQRVIISCSGSTSNSGYNYFYWYQQRPGTAPKLLIYGSDQRPSGVPDRFSGSQSGPSASLAISGLRSEDEAHYYCAAWDDNLSGPVFGGGTKLTVL | 0.193 µg/mL | 0.182 µg/mL | 0.462 nM | 0.204 nM
ADI-14440 (antibody, V domains shown, full-length IgG (yeast-expressed); also called Antibody Number 3; Ab# 3) VH: QVQLVQSGAEVKKPGSSVKVSCKASGGTINNVAISWLRQAPGQGLEWLGGNIPGFGKVRYSQQFETRLTLTADVSSDTAYMVLTSLRSEDTAVYYCAIIDPQLCTRASCFWVNWLDPWGQGTTVTVSS VL: DIVMTQSPGTLSVSPGESAALSCGASESILSDSLAWYQHKPGQAPRLLIYGASSRAAGIPDRFSGSGSGTDFTLTISRLEPEDFAVYFCQQFGALPITFGQGTRLEIK | > 10 µg/mL | 4.18 µg/mL | 2.39 nM | 1.45 nM
ADI-14447 (antibody, V domains shown, full-length IgG (yeast-expressed); also called Antibody Number 10; Ab# 10) VH: QVQLVQSGAEMKKPGSSVTVSCKASGVPFTSYTYSWVRQAPGQGLEWMGRVLPVIGSAKYPQKFQGTVTITADKSTSTIYLQLSSLRPEDTAIYFCAGSLLAGYDREFDSWGQGTLVTVSS VL: DIQMTQSPSSLSASVGDRITITCRASQGISNWLAWYQQKPGKAPKSLIYEASTLQSGVSSRFSGSGSGTHFTLTIASLQPEDFATYYCQQYYIYPLTFGGGTKLEIK | 0.143 µg/mL | 0.372 µg/mL | 0.271 nM | 0.339 nM
ADI-14454 (antibody, V domains shown, full-length IgG (yeast-expressed); also called Antibody Number 17; Ab# 17) VH: QVQLVQSGPTLVKPTQTLTLTCTFSGFSLSTRGVGVGWIRQPPGKALECLGFTYWDGDQFHSPSLKNRLTITKDTSKNQVVLRMTNMDPVDTATYFCVHSDLYDSGGYYLYYFDYWGQGTLVTVSS VL: DIQMTQSPSSLSASVGDRVTITCRASQTIASYLNWYQQRPGEAPKLLIYAASSLQSGVSSRFSGRGSGTDFTLTINILQPEDLATYFCQQAYSAPYTFGQGTKVEIK | 0.23 µg/mL | 2.54 µg/mL | 0.483 nM | 0.297 nM
